Measurements taken from US20240270846A1 (published 2024).
Positions count from the first letter of the chain named. Names may count otherwise. One block for each binder: values may come before it.

Molecular target: T1, CD3 epsilon homodimer protein (UniProt P07766 23-126)
T1 construct: construct not described; homodimer as printed; also called CD3 (CD3 epsilon)
Assay: SPR Biacore T200, CD3 epsilon homodimer immobilized; vs unaltered GLS3000;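 further: antibody variants flowed as analyte over CD3 epsilon homodimer amine-coupled to a CM4 chip, at 25 °C in HBS-EP+ running buffer, fitted with Biacore T200 Evaluation Software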

T1 sequence (P07766 23-126): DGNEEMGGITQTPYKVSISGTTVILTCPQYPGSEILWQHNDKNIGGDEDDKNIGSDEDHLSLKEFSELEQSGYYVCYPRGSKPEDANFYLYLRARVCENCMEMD

B1: GLS3000 N30W (Kabat) L chain altered form, one-arm antibody with CE115HA000 (antibody, human IgG1, kappa, L234A L235A, N297A, name in Kabat numbering)
heavy: QVQLVESGGGVVQPGRSLRLSCAASGFTFSNAWMHWVRQAPGKGLEWVAQIKAKSNNYATYYAESVKGRFTISRDDSKNSLYLQMNSLKTEDTAVYYCRYVHYGAYYGVDAWGQGTTVTVSSASTKGPSVFPLAPSSKSTSGGTAALGCLVKDYFPEPVTVSWNSGALTSGVHTFPAVLQSSGLYSLSSVVTVPSSSLGTQTYICNVNHKPSNTKVDKKVEPKSCDKTHTCPPCPAPEAAGGPSVFLFPPKPKDTLMISRTPEVTCVVVDVSHEDPEVKFNWYVDGVEVHNAKTKPREEQYASTYRVVSVLTVLHQDWLNGKEYKCKVSNKALPAPIEKTISKAKGQPREPQVYTLPPSRCELTKNQVSLSCAVKGFYPSDIAVEWESNGQPENNYKTTPPVLDSDGSFFLVSKLTVDKSRWQQGNVFSCSVMHEALHNHYTQKSLSLSPDYKDDDDK
chain: EPKSSDKTHTCPPCPAPELLGGPSVFLFPPKPKDTLMISRTPEVTCVVVDVSHEDPEVKFNWYVDGVEVHNAKTKPREEQYNSTYRVVSVLTVLHQDWLNGKEYKCKVSNKALPAPIEKTISKAKGQPREPQVCTLPPSRDELTKNQVSLWCLVKGFYPSDIAVEWESNGQPENNYKTTPPVLDSDGSFFLYSKLTVDKSRWQQGNVFSCSVMHEALHNRYTQKSLSLSP
light: DIVMTQSPLSLPVTPGEPASISCRSSQSLVHSNRWTYLHWYQQKPGQAPRLLIYKVSNRFSGVPDRFSGSGSGTDFTLKISRVEAEDVGVYYCGQGTQVPYTFGQGTKLEIKRTVAAPSVFIFPPSDEQLKSGTASVVCLLNNFYPREAKVQWKVDNALQSGNSQESVTEQDSKDSTYSLSSTLTLSKADYEKHKVYACEVTHQGLSSPVTKSFNRGEC
notes: one-arm antibody
- KD ratio to GLS3000 (Affinity up): 0.97

B4: GLS3000 R29S (Kabat) L chain altered form, one-arm antibody with CE115HA000 (antibody, human IgG1, kappa, L234A L235A, N297A, name in Kabat numbering)
heavy: B1 heavy
chain: B1 chain
light: B1 light with R34S, W35N
notes: one-arm antibody
- KD ratio to GLS3000 (Affinity up): 1.05

B5: GLS3000 Q27L (Kabat) L chain altered form, one-arm antibody with CE115HA000 (antibody, human IgG1, kappa, L234A L235A, N297A, name in Kabat numbering)
heavy: B1 heavy
chain: B1 chain
light: B1 light with Q27L, W35N
notes: one-arm antibody
- KD ratio to GLS3000 (Affinity up): 0.86

B8: GLS3000 R24T (Kabat) L chain altered form, one-arm antibody with CE115HA000 (antibody, human IgG1, kappa, L234A L235A, N297A, name in Kabat numbering)
heavy: B1 heavy
chain: B1 chain
light: B1 light with R24T, W35N
notes: one-arm antibody
- KD ratio to GLS3000 (Affinity up): 1.03

B9: GLS3000 S25I (Kabat) L chain altered form, one-arm antibody with CE115HA000 (antibody, human IgG1, kappa, L234A L235A, N297A, name in Kabat numbering)
heavy: B1 heavy
chain: B1 chain
light: B1 light with S25I, W35N
notes: one-arm antibody
- KD ratio to GLS3000 (Affinity up): 0.67

B10: GLS3000 N53A (Kabat) L chain altered form, one-arm antibody with CE115HA000 (antibody, human IgG1, kappa, L234A L235A, N297A, name in Kabat numbering)
heavy: B1 heavy
chain: B1 chain
light: B1 light with W35N, N58A
notes: one-arm antibody
- KD ratio to GLS3000 (Affinity up): 0.82

B13: GLS3000 S25E (Kabat) L chain altered form, one-arm antibody with CE115HA000 (antibody, human IgG1, kappa, L234A L235A, N297A, name in Kabat numbering)
heavy: B1 heavy
chain: B1 chain
light: B1 light with S25E, W35N
notes: one-arm antibody
- KD ratio to GLS3000 (Affinity up): 6.54

B14: GLS3000 R24A (Kabat) L chain altered form, one-arm antibody with CE115HA000 (antibody, human IgG1, kappa, L234A L235A, N297A, name in Kabat numbering)
heavy: B1 heavy
chain: B1 chain
light: B1 light with R24A, W35N
notes: one-arm antibody
- KD ratio to GLS3000 (Affinity up): 1

B15: GLS3000 R24E (Kabat) L chain altered form, one-arm antibody with CE115HA000 (antibody, human IgG1, kappa, L234A L235A, N297A, name in Kabat numbering)
heavy: B1 heavy
chain: B1 chain
light: B1 light with R24E, W35N
notes: one-arm antibody
- KD ratio to GLS3000 (Affinity up): 0.89

B16: GLS3000 R29V (Kabat) L chain altered form, one-arm antibody with CE115HA000 (antibody, human IgG1, kappa, L234A L235A, N297A, name in Kabat numbering)
heavy: B1 heavy
chain: B1 chain
light: B1 light with R34V, W35N
notes: one-arm antibody
- KD ratio to GLS3000 (Affinity up): 2.25

B17: GLS3000 R29T (Kabat) L chain altered form, one-arm antibody with CE115HA000 (antibody, human IgG1, kappa, L234A L235A, N297A, name in Kabat numbering)
heavy: B1 heavy
chain: B1 chain
light: B1 light with R34T, W35N
notes: one-arm antibody
- KD ratio to GLS3000 (Affinity up): 1.02

B18: GLS3000 R54A (Kabat) L chain altered form, one-arm antibody with CE115HA000 (antibody, human IgG1, kappa, L234A L235A, N297A, name in Kabat numbering)
heavy: B1 heavy
chain: B1 chain
light: B1 light with W35N, R59A
notes: one-arm antibody
- KD ratio to GLS3000 (Affinity up): 0.85

B19: GLS3000 R29D (Kabat) L chain altered form, one-arm antibody with CE115HA000 (antibody, human IgG1, kappa, L234A L235A, N297A, name in Kabat numbering)
heavy: B1 heavy
chain: B1 chain
light: B1 light with R34D, W35N
notes: one-arm antibody
- KD ratio to GLS3000 (Affinity up): 1.58

B22: GLS3000 S25M (Kabat) L chain altered form, one-arm antibody with CE115HA000 (antibody, human IgG1, kappa, L234A L235A, N297A, name in Kabat numbering)
heavy: B1 heavy
chain: B1 chain
light: B1 light with S25M, W35N
notes: one-arm antibody
- KD ratio to GLS3000 (Affinity up): 1.6

B23: GLS3000 R24D (Kabat) L chain altered form, one-arm antibody with CE115HA000 (antibody, human IgG1, kappa, L234A L235A, N297A, name in Kabat numbering)
heavy: B1 heavy
chain: B1 chain
light: B1 light with R24D, W35N
notes: one-arm antibody
- KD ratio to GLS3000 (Affinity up): 0.83

B26: GLS3000 R29L (Kabat) L chain altered form, one-arm antibody with CE115HA000 (antibody, human IgG1, kappa, L234A L235A, N297A, name in Kabat numbering)
heavy: B1 heavy
chain: B1 chain
light: B1 light with R34L, W35N
notes: one-arm antibody
- KD ratio to GLS3000 (Affinity up): 0.9

B27: GLS3000 R29Y (Kabat) L chain altered form, one-arm antibody with CE115HA000 (antibody, human IgG1, kappa, L234A L235A, N297A, name in Kabat numbering)
heavy: B1 heavy
chain: B1 chain
light: B1 light with R34Y, W35N
notes: one-arm antibody
- KD ratio to GLS3000 (Affinity up): 1.08

B28: GLS3000 Q27D (Kabat) L chain altered form, one-arm antibody with CE115HA000 (antibody, human IgG1, kappa, L234A L235A, N297A, name in Kabat numbering)
heavy: B1 heavy
chain: B1 chain
light: B1 light with Q27D, W35N
notes: one-arm antibody
- KD ratio to GLS3000 (Affinity up): 0.89

B29: GLS3000 R24S (Kabat) L chain altered form, one-arm antibody with CE115HA000 (antibody, human IgG1, kappa, L234A L235A, N297A, name in Kabat numbering)
heavy: B1 heavy
chain: B1 chain
light: B1 light with R24S, W35N
notes: one-arm antibody
- KD ratio to GLS3000 (Affinity up): 0.97

B30: GLS3000 S25L (Kabat) L chain altered form, one-arm antibody with CE115HA000 (antibody, human IgG1, kappa, L234A L235A, N297A, name in Kabat numbering)
heavy: B1 heavy
chain: B1 chain
light: B1 light with S25L, W35N
notes: one-arm antibody
- KD ratio to GLS3000 (Affinity up): 4.93

B31: GLS3000 Q27P (Kabat) L chain altered form, one-arm antibody with CE115HA000 (antibody, human IgG1, kappa, L234A L235A, N297A, name in Kabat numbering)
heavy: B1 heavy
chain: B1 chain
light: B1 light with Q27P, W35N
notes: one-arm antibody
- KD ratio to GLS3000 (Affinity up): 2.16

B32: GLS3000 R24G (Kabat) L chain altered form, one-arm antibody with CE115HA000 (antibody, human IgG1, kappa, L234A L235A, N297A, name in Kabat numbering)
heavy: B1 heavy
chain: B1 chain
light: B1 light with R24G, W35N
notes: one-arm antibody
- KD ratio to GLS3000 (Affinity up): 0.92

B33: GLS3000 R24Q (Kabat) L chain altered form, one-arm antibody with CE115HA000 (antibody, human IgG1, kappa, L234A L235A, N297A, name in Kabat numbering)
heavy: B1 heavy
chain: B1 chain
light: B1 light with R24Q, W35N
notes: one-arm antibody
- KD ratio to GLS3000 (Affinity up): 0.87

The next lines start with the values.

- KD ratio to GLS3000 (Affinity up): 1.6
B2: GLS3000 R29I (Kabat) L chain altered form, one-arm antibody with CE115HA000 (antibody, human IgG1, kappa, L234A L235A, N297A, name in Kabat numbering)
heavy: B1 heavy
chain: B1 chain
light: B1 light with R34I, W35N
notes: one-arm antibody

- KD ratio to GLS3000 (Affinity up): 0.73
B3: GLS3000 S25A (Kabat) L chain altered form, one-arm antibody with CE115HA000 (antibody, human IgG1, kappa, L234A L235A, N297A, name in Kabat numbering)
heavy: B1 heavy
chain: B1 chain
light: B1 light with S25A, W35N
notes: one-arm antibody

- KD ratio to GLS3000 (Affinity up): 8.86
B6: GLS3000 S25D (Kabat) L chain altered form, one-arm antibody with CE115HA000 (antibody, human IgG1, kappa, L234A L235A, N297A, name in Kabat numbering)
heavy: B1 heavy
chain: B1 chain
light: B1 light with S25D, W35N
notes: one-arm antibody

- KD ratio to GLS3000 (Affinity up): 0.99
B7: GLS3000 Q27E (Kabat) L chain altered form, one-arm antibody with CE115HA000 (antibody, human IgG1, kappa, L234A L235A, N297A, name in Kabat numbering)
heavy: B1 heavy
chain: B1 chain
light: B1 light with Q27E, W35N
notes: one-arm antibody

- KD ratio to GLS3000 (Affinity up): 0.34
B11: GLS3000 R24P (Kabat) L chain altered form, one-arm antibody with CE115HA000 (antibody, human IgG1, kappa, L234A L235A, N297A, name in Kabat numbering)
heavy: B1 heavy
chain: B1 chain
light: B1 light with R24P, W35N
notes: one-arm antibody

- KD ratio to GLS3000 (Affinity up): 0.62
B12: GLS3000 R29G (Kabat) L chain altered form, one-arm antibody with CE115HA000 (antibody, human IgG1, kappa, L234A L235A, N297A, name in Kabat numbering)
heavy: B1 heavy
chain: B1 chain
light: B1 light with R34G, W35N
notes: one-arm antibody

- KD ratio to GLS3000 (Affinity up): 1.15
B20: GLS3000 R29A (Kabat) L chain altered form, one-arm antibody with CE115HA000 (antibody, human IgG1, kappa, L234A L235A, N297A, name in Kabat numbering)
heavy: B1 heavy
chain: B1 chain
light: B1 light with R34A, W35N
notes: one-arm antibody

- KD ratio to GLS3000 (Affinity up): 1.06
B21: GLS3000 Q27R (Kabat) L chain altered form, one-arm antibody with CE115HA000 (antibody, human IgG1, kappa, L234A L235A, N297A, name in Kabat numbering)
heavy: B1 heavy
chain: B1 chain
light: B1 light with Q27R, W35N
notes: one-arm antibody

- KD ratio to GLS3000 (Affinity up): 1.03
B24: GLS3000 N30Y (Kabat) L chain altered form, one-arm antibody with CE115HA000 (antibody, human IgG1, kappa, L234A L235A, N297A, name in Kabat numbering)
heavy: B1 heavy
chain: B1 chain
light: B1 light with W35Y
notes: one-arm antibody

- KD ratio to GLS3000 (Affinity up): 0.94
B25: GLS3000 R24Y (Kabat) L chain altered form, one-arm antibody with CE115HA000 (antibody, human IgG1, kappa, L234A L235A, N297A, name in Kabat numbering)
heavy: B1 heavy
chain: B1 chain
light: B1 light with R24Y, W35N
notes: one-arm antibody

- KD ratio to GLS3000 (Affinity up): 14
B34: GLS3000 R29P (Kabat) L chain altered form, one-arm antibody with CE115HA000 (antibody, human IgG1, kappa, L234A L235A, N297A, name in Kabat numbering)
heavy: B1 heavy
chain: B1 chain
light: B1 light with R34P, W35N
notes: one-arm antibody
